Among the data in PMC517823 (2004) are Ki values, retold here.

Numbering of substitutions follows the chain as printed.

T1: Ffh (UniProt P0AGD7 1-453)
T1 chain: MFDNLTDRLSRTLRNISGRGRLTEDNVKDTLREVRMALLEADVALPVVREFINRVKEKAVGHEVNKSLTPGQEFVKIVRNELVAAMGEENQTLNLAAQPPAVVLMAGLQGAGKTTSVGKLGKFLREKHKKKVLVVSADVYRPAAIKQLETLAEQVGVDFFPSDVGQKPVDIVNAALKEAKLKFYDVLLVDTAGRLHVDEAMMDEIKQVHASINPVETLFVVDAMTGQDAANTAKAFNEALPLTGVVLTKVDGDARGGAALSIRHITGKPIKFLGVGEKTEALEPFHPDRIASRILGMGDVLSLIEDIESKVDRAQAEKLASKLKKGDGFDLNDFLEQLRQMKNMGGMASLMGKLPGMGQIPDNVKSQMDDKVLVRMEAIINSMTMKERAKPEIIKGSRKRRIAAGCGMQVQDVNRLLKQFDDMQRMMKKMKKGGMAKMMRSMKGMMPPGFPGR

B1: FtsY T307(112)A (domain or fragment)
chain: ASEQAVEEQPQAHTEAEAETFAADVVEVTEQVAESEKAQPEAEVVAQPEPVVEETPEPVAIEREELPLPEDVNAEAVSPEEWQAEAETVEIVEAAEEEAAKEEITDEELETALAAEAAEEAVMVVPPAEEEQPVEEIAQEQEKPTKEGFFARLKRSLLKTKENLGSGFISLFRGKKIDDDLFEELEEQLLIADVGVETTRKIITNLTEGASRKQLRDAEALYGLLKEEMGEILAKVDEPLNVEGKAPFVILMVGVNGVGKATTIGKLARQFEQQGKSVMLAAGDTFRAAAVEQLQVWGQRNNIPVIAQHTGADSASVIFDAIQAAKARNIDVLIADTAGRLQNKSHLMEELKKIVRVMKKLDVEAPHEVMLTIDASTGQNAVSQAKLFHEAVGLTGITLTKLDGTAKGGVIFSVADQFGIPIRYIGVGERIEDLRPFKADDFIEALFARED
B2: FtsY D330(135)A (protein)
chain: B1 chain with A261T, D284A
B3: FtsY K453(252)E (protein)
chain: B1 chain with A261T, K407E
B4: FtsY Q339(144)A (protein)
chain: B1 chain with A261T, Q293A
B5: FtsY T307(112)W (protein)
chain: B1 chain with A261W
B6: FtsY K447(246)A (protein)
chain: B1 chain with A261T, K401A
B7: FtsY K306(111)A (protein)
chain: B1 chain with K260A, A261T
B8: FtsY R333(138)A (domain or fragment)
chain: B1 chain with A261T, R287A
B9: FtsY D382(187)A (protein)
chain: B1 chain with A261T, D336A
B10: FtsY Asn302(107) to Ala (domain or fragment)
chain: B1 chain with N256A, A261T
B11: FtsY Asn302(107) to Trp (domain or fragment)
chain: B1 chain with N256W, A261T
B12: FtsY A336(141)W (domain or fragment)
chain: B1 chain with A261T, A290W
B13: FtsY G454(253)W (protein)
chain: B1 chain with A261T, G408W
B14: FtsY K312(117)A (protein)
chain: B1 chain with A261T, K266A
B15: FtsY D479(278)A (protein)
chain: B1 chain with A261T, D433A

One assay addresses T1, Ffh. The assay can be described thus: GTP; inhibition assay.
The molecule B1 returned a Ki of 5.5 µM.

The next assay concerns the target T1, Ffh. The experiment in a line: GTP; inhibition assay. The source holds these as a separate data set.
B2 came in with a Ki of 2.4 µM. B3 came in with a Ki of 3.1 µM.

B4: the Ki stood at 3.9 µM. The same measure, in the same setting: for B5 the value was 9.9 µM. The same measure, in the same setting: for B6 the value was 11 µM; for B7, 3.5 µM. On to B8, for which the Ki came out at 0.24 µM. The molecule B9 yielded a Ki of 27 µM. Still for that read-out and setting: for B10 the value was 0.11 µM.

Molecule B11 displayed a Ki of 0.14 µM. Take B1: the Ki amounted to 7.1 µM. Regarding B12, affinity was put at a Ki of 0.16 µM. With B13, affinity was put at a Ki of 4.2 µM. On to B14, for which the affinity corresponds to a Ki of 2.4 µM. As to B15, affinity was put at a Ki of 2.8 µM.

As a reminder, the Ki is the equilibrium dissociation constant of an inhibitor or competing ligand from its target.
